Assay [1] concerns the target fluorescein-labeled Dha-Erk peptide. Description: fluorescence polarisation; LanCL1 or variant titrated (highest 400 μM, 300 μM for some variants) against 20 nM fluorescein-peptide; 0.5 mM TCEP, 0.1 mM ZnCl2, 150 mM NaCl, 100 mM Tris pH 7.5, no GSH; 15 min incubation; triplicates. (In general: Fluorescence polarisation rises when a labelled molecule tumbles more slowly, as on binding a larger partner.)

Assay [2] deals with Fluorescein-labeled Erk peptide in which the Dha was substituted by L-Ala. In words: fluorescence polarisation; fluorescein-labeled peptide with LanCL1 or its variants; in the absence of GSH to avoid catalytic turnover.
Assay [3] has as its target T1, LanCL1 Wild Type (human LanC-like protein 1) (human, UniProt O43813 1-399).
T1 construct: LanC-like protein 1 (LanCL1), human; also called LanCL1 WT; WT-LanCL1; source: E. coli Rosetta 2 (DE3), purified (HisTrap Ni-NTA, PD-10 desalting)
In words: fluorescence polarisation; LanCL1 or variant titrated (highest 400 μM, 300 μM for some variants) against 20 nM fluorescein-peptide; 0.5 mM TCEP, 0.1 mM ZnCl2, 150 mM NaCl, 100 mM Tris pH 7.5, no GSH; 15 min incubation; triplicates. Conditions: both partners purified.

Assay [4] has as its target T1, LanCL1 Wild Type (human LanC-like …). The assay is described as above. Conditions: both partners purified. This is another data set of the same source.

Ends that are not written are not given here.

T1 sequence (O43813 whole entry): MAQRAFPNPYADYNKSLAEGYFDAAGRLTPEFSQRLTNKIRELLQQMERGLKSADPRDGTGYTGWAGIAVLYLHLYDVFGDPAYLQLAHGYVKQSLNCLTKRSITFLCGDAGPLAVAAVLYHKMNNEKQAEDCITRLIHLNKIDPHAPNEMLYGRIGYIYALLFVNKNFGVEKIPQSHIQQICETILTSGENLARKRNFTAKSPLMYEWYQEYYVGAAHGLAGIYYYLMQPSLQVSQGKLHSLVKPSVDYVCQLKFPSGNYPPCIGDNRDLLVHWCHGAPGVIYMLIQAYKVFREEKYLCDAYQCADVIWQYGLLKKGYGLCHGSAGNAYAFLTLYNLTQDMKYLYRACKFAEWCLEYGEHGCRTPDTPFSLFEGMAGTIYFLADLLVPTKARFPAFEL

With “LanCL1 C264A/H277A (from UniProt O43813 1-399) (enzyme)”, the Kd (in general, the free concentration of one partner at which half of the binding sites on the other are occupied at equilibrium, for simple one-to-one binding) in assay [1] is above 112 µM. Regarding “LanCL1 C264A/H277K (from UniProt O43813 1-399) (enzyme)”, the Kd in assay [1] was above 470 µM.

“LanCL1 C264A/H277N (from UniProt O43813 1-399) (enzyme)” returned an equilibrium dissociation constant (Kd) in assay [1] above 315 µM. “human LanCL1, wild type (His6-LanCL1) (from UniProt O43813 1-399) (enzyme)” displayed a fold weaker binding than Flu-Dha-Erk in assay [2] of 4 fold.

B1: fluorescein-labeled Ala-Erk peptide (peptide)
peptide: DHTGFLAEYVATR
modifications: also: fluorescein label, end not given here
notes: Numbers count on: the synthetic 13-mer; Its preparation is not described; also called Flu-Ala-Erk; fluorescein-Ala-Erk
B1: the Kd in assay [3] is 79.6 ± 7.6 µM; in assay [4], above 133 µM.
